Laboratory results published in patent US20230322882A1 (NANJING NORMAL UNIVERSITY, published 2023).
Changes are numbered by the printed parent chain. Where two headings read alike, the source gives them in different places.

T1: CD25, CD122 and CD132 receptor molecules on HEK-Blue IL-2 cells (UniProt P01589 22-272; P14784 27-551; P31785 23-369, limits assumed)
T1 sequence (looked up) 1: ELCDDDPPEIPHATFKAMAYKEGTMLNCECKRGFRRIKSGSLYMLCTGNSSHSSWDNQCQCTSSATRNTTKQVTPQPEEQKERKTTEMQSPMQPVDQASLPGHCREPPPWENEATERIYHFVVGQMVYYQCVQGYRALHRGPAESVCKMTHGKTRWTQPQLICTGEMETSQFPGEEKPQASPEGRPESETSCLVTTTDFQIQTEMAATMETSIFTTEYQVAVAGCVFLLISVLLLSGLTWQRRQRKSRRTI
T1 sequence (looked up) 2: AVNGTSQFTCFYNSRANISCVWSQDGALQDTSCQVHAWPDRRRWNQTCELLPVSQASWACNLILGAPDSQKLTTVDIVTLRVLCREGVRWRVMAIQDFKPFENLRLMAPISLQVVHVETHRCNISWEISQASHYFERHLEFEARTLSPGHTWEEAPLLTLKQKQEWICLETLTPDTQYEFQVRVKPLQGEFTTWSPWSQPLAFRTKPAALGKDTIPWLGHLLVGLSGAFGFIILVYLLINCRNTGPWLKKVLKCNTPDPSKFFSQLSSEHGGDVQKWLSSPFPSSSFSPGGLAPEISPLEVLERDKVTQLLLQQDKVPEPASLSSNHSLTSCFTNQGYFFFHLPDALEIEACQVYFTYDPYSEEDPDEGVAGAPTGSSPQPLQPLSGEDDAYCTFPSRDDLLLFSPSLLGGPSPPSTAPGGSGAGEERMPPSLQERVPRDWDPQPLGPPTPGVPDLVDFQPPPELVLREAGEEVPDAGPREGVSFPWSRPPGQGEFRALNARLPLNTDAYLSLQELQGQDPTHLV
T1 sequence (looked up) 3: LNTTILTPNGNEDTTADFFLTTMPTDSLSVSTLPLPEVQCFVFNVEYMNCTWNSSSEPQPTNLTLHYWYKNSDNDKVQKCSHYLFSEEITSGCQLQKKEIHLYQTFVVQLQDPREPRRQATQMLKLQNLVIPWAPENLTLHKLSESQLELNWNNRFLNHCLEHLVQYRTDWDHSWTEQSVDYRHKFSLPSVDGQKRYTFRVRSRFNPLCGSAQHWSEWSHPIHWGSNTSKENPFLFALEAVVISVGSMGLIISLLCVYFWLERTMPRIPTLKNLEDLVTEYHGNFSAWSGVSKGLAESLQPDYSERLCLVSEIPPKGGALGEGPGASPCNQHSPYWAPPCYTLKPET

B1: Polypeptide dimer 1 (SEQ ID NO: 31 + SEQ ID NO: 32) (Fc fusion)
chain 1: HHHHHHTCPPCPAPEAAGGPSVFLFPPKPKDTLMISRTPEVTCVVVDVSHEDPEVKFNWYVDGVEVHNAKTKPREEQYNSTYRVVSVLTVLHQDWLNGKEYKCKVSNKALGAPIEKTISKAKGQPREPQVYTLPPCREEMTKNQVSLWCLVKGFYPSDIAVEWESNGQPENNYKTTPPVLDSDGSFFLYSKLTVDKSRWQQGNVFSCSVMHEALHNHYTQKSLSLSPGGGGGSGGGGSNFHLRPRDLISNINVIVLELKGSETTFMCEYADETATIVEFLNRWITFSQSIISTLTGSGPASSSTKKTQLQLEHLLLDLQMILNGINNYKNPKLTRMLTFKFYMPKKATELKHLQCLEEELKPLEEVLNLAQSK
chain 2: HTCPPCPAPEAAGGPSVFLFPPKPKDTLMISRTPEVTCVVVDVSHEDPEVKFNWYVDGVEVHNAKTKPREEQYNSTYRVVSVLTVLHQDWLNGKEYKCKVSNKALGAPIEKTISKAKGQPREPQVCTLPPSREEMTKNQVSLSCAVKGFYPSDIAVEWESNGQPENNYKTTPPVLDSDGSFFLVSKLTVDKSRWQQGNVFSCSVMHEALHNHYTQKSLSLSPGGGGGSGGGGSELCDDDPPEIPHATFKAMAYKEGTMLNCECKRGFRRIKSGSLYMLCTGNSSHSSWDNQCQCTSSATRNTTKQVTPQPEEQKERKTTEMQSPMQPVDQASLPGHCREPPPWENEATERIYHFVVGQMVYYQCVQGYRALHRGPAESVCKMTHGKTRWTQPQLICTGDYKDDDDK
B2: Polypeptide dimer 2 (SEQ ID NO: 33 + SEQ ID NO: 34) (Fc fusion)
chain 1: B1 chain 1 with Y131C, C136S, W148S, L150A, Y189V
chain 2: B1 chain 2 with C126Y, S131C, S143W, A145L, V184Y

What was measured:
[1] = target: T1, CD25, CD122 and CD132 receptor …; test: cell-based or functional assay
[2] = target: T1, CD25, CD122 and CD132 receptor …; test: cell-based or functional assay; remark: listed apart in the source

| Binder | EC50 (pM), STAT5-regulated SEAP reporter in HEK-Blue IL-2 cells [1] [pM] | EC50 (pM), STAT5-regulated SEAP reporter in HEK-Blue IL-2 cells [2] [pM] |
| --- | --- | --- |
| B1 | 10.8 |  |
| B2 |  | 10.2 |
